Test [1] deals with HA-L2g cells transduced with pBA9b-hIFNg-yCD2 vector. The test can be described thus: MTS cell viability of HA-L2g cells transduced with pBA9b-hIFNg-yCD2. In kind it is cell-based, human. The method, then: The concentration PALA required to kill HA-L2g cells transduced with pBA9b-hIFNg-yCD2 vector is determined. Cells are seeded at 1e3 cells in 96-well plates the day before. At 24 hour post cell seeding, PALA at 1, 10, 50 and 100 μM are added to the culture for 4 consecutive days followed MTS assay to determine the cell viability. […] A range of cytosine concentrations are also determined (0.2, 1, 5 10 mM) in culture by performing the same experiment described above.

Test [2] has as its system CTLL-2. The test can be described thus: IL-2 bioactivity, CTLL-2 proliferation (3H-thymidine incorporation). It is filed as cell-based, mouse. Particulars: produced by HA-L2 cells; vs recombinant IL-2 from E. coli. On the procedure: CTLL-2 cell growth depends greatly on the presence of IL-2. The bioactivity of IL-2 is determined by the level of ^3H-thymidine incorporation into the DNA of proliferating cells. […] In addition, the level of CD expression from pBA9b-IFNg-yCD2 transduced HA-L2 cells is also detected by immunoblotting using an antibody against CD.
For orientation: Dividing cells build labelled thymidine or BrdU into new DNA.

Test [3] relates to CT-26. The test is described as follows: mIFNg-induced MHC Class I upregulation in CT-26 cells (flow cytometry). It is filed as cell-based, mouse. Particulars: vs purified recombinant protein from E. coli. On the procedure: (§1) To verify the bioactivity of recombinant hIFNg and mIFNg produced from the virus producer cell, upregulation of MHC Class I cell surface expression by flow cytometry was performed. Supernatant of known IFNg concentration were incubated with species-matched mouse colon carcinoma cell line, CT-26 or human fibrosarcoma cell line, HT1080. The degree of upregulation measured by mean fluorescent intensity (MFI) was compared to a standard which are purified recombinant protein expressed from E. coli. […] The recombinant hIFNg produced from the virus producer cells are 3-5 fold higher than that produced from E. coli (FIG. 2B). The difference is likely due to the differences in amino acid composition as well as glycosylation pattern.
(In general: In flow cytometry, cells or beads pass a laser one at a time.)

Test [4] relates to PDL1. The test is described as follows: PD-L1 cell surface expression in cancer cell lines before and after IFNγ induction. It is filed as cell-based, human. The note with it: panel of cancer cell lines including glioma. The source says: Its expression can be further induced by IFNγ. A panel of cancer cell lines including glioma cell lines is surveyed for their PDL1 expression (anti-human PD-L1 antibody, eBioscience) before and after IFNγ induction.

The subject of test [5] is TGFβ1, 2 and 3. The test can be described thus: TGFβ1, 2 and 3 gene expression (Taqman) in cancer cell lines before and after IFNγ treatment. In kind it is cell-based, human. The note with it: panel of cancer cell lines including glioma. An excerpt:
A panel of cancer cell lines including glioma cell lines were surveyed for their TGFβ1, 2 and 3 expression before and after IFNγ treatment using human TGF isoform-specific Taqman primers (Life Technology). […] Some expression more TGFβ1 and others express more TGFβ2. In all cases, TGFβ3 expression is low. In contrast to IDO1 and PDL1, TGFβ1, 2 and 3 expression is not induced by IFNγ.
Background: In qPCR the cycle at which signal appears reflects the starting amount.

The subject of test [6] is IDO1. The test is described as follows: IDO1 protein expression in glioma cell lines after IFNγ induction. It is filed as cell-based, human. Particulars: panel of glioma cell lines; level of induction varies. An excerpt: A panel of glioma cell lines were surveyed for their IDO1 expression after IFNγ induction. […] GAPDH (anti-human GAPDH at 1:500, Cell Signaling) detection was included as a loading control.

The test system of test [7] is HT1080. The test is described as follows: hIFNg-induced MHC Class I upregulation in HT1080 cells (flow cytometry). The note with it: MFI. It is filed as cell-based, human. The method, then:
as §1

For the molecule `Nc1cc[nH]c(=O)n1` [cytosine], the “cell viability with cytosine” value in test [1] (0.2, 1, 5, 10 mM) is recorded as “can tolerate cytosine in all concentrations tested”. On to `O=C(O)C[C@H](NC(=O)CP(=O)(O)O)C(=O)O` [PALA, N-(phosphonacetyl)-L-aspartate], for which, in test [1] (1, 10, 50 and 100 μM, 4 consecutive days), the “cell viability with PALA” value is “sensitive to PALA at 10 μM and plateau at 50 μM”.

B1: mIL-2: recombinant mouse IL-2 produced by the HA-L2 cells (protein, UniProt P04351 21-169, looked up)
Interleukin-2: APTSSSTSSSTAEAQQQQQQQQQQQQHLEQLLMDLQELLSRMENYRNLKLPRMLTFKFYLPKQATELKDLQCLEDELGPLRHVLDLTQSKSFQLEDAENFISNIRVTVVKLKGSDNTFECQFDDESATVVDFLRRWIAFCQSIISTSPQ
Consider B1, for which the IL-2 bioactivity entry in test [2] is on record as “comparable”.

B2: recombinant mIFNg produced by the virus producer cells: mouse IFNg in supernatant of virus producer cells (protein, UniProt P01580 23-155, looked up)
Interferon gamma: HGTVIESLESLNNYFNSSGIDVEEKSLFLDIWRNWQKDGDMKILQSQIISFYLRLFEVLKDNQAISNNISVIESHLITTFFSNSKAKKDAFMSIAKFEVNNPQVQRQAFNELIRVVHQLLPESSLRKRKRSRC
Turning to B2, the “bioactivity (MHC Class I upregulation, MFI)” value in test [3] is recorded as “comparable to that of recombinant mIFNg produced by E. coli”.

B3: IFNγ: interferon gamma used to induce IDO1 and PDL1 expression in cell lines (protein, UniProt P01579 24-161, looked up)
Interferon gamma: QDPYVKEAENLKKYFNAGHSDVADNGTLFLGILKNWKEESDRKIMQSQIVSFYFKLFKNFKDDQSIQKSVETIKEDMNVKFFNSNKKKRDDFEKLTNYSVTDLNVQRKAIHELIQVMAELSPAAKTGKRKRSQMLFRG
As to B3, in test [4], the “PDL1 expression further induced by IFNγ” value was “most of the cells lines, but not all, tested here are responsive”. For the same molecule, the “TGFβ1, 2 and 3 expression induced by IFNγ” value in test [5] is given as “not induced”. Moreover, in test [6], the “IDO1 expression after IFNγ induction” value is “upregulated”.

B4: recombinant hIFNg produced from the virus producer cells: human IFNg in supernatant of virus producer cells (protein, UniProt P01579 24-161, looked up)
Interferon gamma: B3 Interferon gamma
Take B4: the “bioactivity higher than that produced from E. coli” value in test [7] is recorded as 3-5 fold.

These data come from patent US11230719B2, “Retroviral vector having immune-stimulating activity” (DENOVO BIOPHARMA LLC, priority 2014, dated 2022).
